In patent US5976535A, “Pretargeting protocols for the enhanced localization of cytotoxins to target sites and cytotoxic combinations useful therefore” (NeoRx Corporation, priority 1995, dated 1999):
Like-named read-outs stand apart in the source and are kept apart here.

Assays:
LS-180 tumor = conditions: mouse, in vivo
Procedure: (§2) Time 0 inject (i.v.) 200 μg NR-LU-10-StrAv

LS-180 tumor xenografts [1] = experiment: Two-step pretargeting of 131I-PIP-biocytin in tumor-bearing mice; type: in vivo, female nude mice; conditions: 200 μg NR-LU-10-streptavidin at t=0; 42 μg at t=36 h
Procedure: At t=0, the mice were injected with 200 μg of NR-LU-10-streptavidin conjugate labeled with ^125 I using PIP-NHS (see Example IV.A.). At t=36 h, the mice received 42 μg of ^131 IPIP-biocytin.

[2] = Tumor uptake of PIP-biocytin (two-step pretargeting); type: in vivo, tumored nude mice; conditions: mouse, tumor, 0.0005 mg; 0.5 μg dose; 120 hour time point (96 hours after administration); read-out: peak tumor uptake
Procedure: (§1) At 24 hours, the mice received an i.v. injection of PIP-I-131-biocytin (40 μCi) and an amount of cold carrier PIP-I-127 biocytin corresponding to doses of 42 μg (69,767 pmol), 21 μg (34,884 pmol), 5.7 μg (9468 pmol), 2.85 μg (4734 pmol) or 0.5 μg (830 pmol).

LS-180 tumor xenografts [3] = experiment: as above; type: in vivo, tumored nude mice
Procedure: as §1

in vivo = conditions: mouse
Procedure: as §2

[4] = tested on: LS-180 human colon tumor xenografts
Procedure: The experimental protocol was as follows:
Group 1: Time 0, inject 100 μg ^125 I-labeled,
The three radiolabels employed in this protocol are capable of detection in the presence of each other.
Areas under the curves (AUC) and the ratio of AUCtumor /AUCblood were determined.

[5] = in vivo; cited from earlier work
[6] = type: in vivo, female BALB/c mice; conditions: 5 minutes post-administration, percent injected dose of I-125-labeled protein
Procedure: A. Derivitization of orosomucoid. 10 mg human orosomucoid (Sigma N-9885) was dissolved in 3.5 ml of pH 5.5 0.1 M sodium acetate buffer containing 160 mM NaCl. 70 μl of a 2% (w/v) CaCl solution in deionized (D.I.) water was added and 11 μl of neuraminidase (Sigma N-7885), 4.6 U/ml, was added. The mixture was incubated at 37° C. for 2 hours, and the entire sample was exchanged over a Centricon-10® ultrafiltration device (available from Amicon, Danvers, Mass.) with 2 volumes of PBS. The asialoorosomucoid and orosomucoid starting material were radiolabeled with I-125 using PIP technology, as described in Example IV above.
In addition, two animals receiving each compound were sacrificed at 5 minutes post-administration and limited biodistributions were performed.

[7] = biological target: T1, Streptavidin-agarose beads (Streptomyces avidinii, UniProt P22629); experiment: Binding to streptavidin-agarose beads; conditions: for Pellet: radioactivity bound to beads; for Supernatant: radioactivity not bound to beads
T1 construct: purchased Sigma S-1638
Procedure: B. Biotinylation of asialoorosomucoid clearing agent and orosomucoid control. 100 μl of 0.2 M sodium carbonate buffer, pH 9.2, was added to 2 mg (in 1.00 ml PBS) of PIP-125-labeled orosomucoid and to 2 mg PIP-125-labeled asialoorosomucoid. 60 μl of a 1.85 mg/ml solution of NHS-amino caproate biotin in DMSO was then added to each compound. The reaction mixtures were vortexed and allowed to sit at room temperature for 45 minutes. […]. Streptavidin-agarose beads (Sigma S-1638) or -pellets were washed with PBS, and 20 μg of each biotinylated, radiolabeled protein was added to 400 μl of beads and 400 μl of PBS, vortexed for 20 seconds and centrifuged at 14,000 rpm for 5 minutes. The supernatant was removed and the pellets were washed with 400 μl PBS. This wash procedure was repeated twice more, and the combined supernatants were assayed by placing them in a dosimeter versus their respective pellets.

T1 sequence (P22629 25-183): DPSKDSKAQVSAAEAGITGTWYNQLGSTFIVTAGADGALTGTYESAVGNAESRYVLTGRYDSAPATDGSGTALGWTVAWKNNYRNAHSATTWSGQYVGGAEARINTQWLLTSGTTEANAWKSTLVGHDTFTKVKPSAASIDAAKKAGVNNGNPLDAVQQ

Q: Which results are given for `O=C(CCCCC1SCC2NC(=O)NC21)NCCCCC(NC(=O)c1ccc([131I])cc1)C(=O)O` (stereo not shown) [PIP-biocytin]?
A: peak tumor uptake (LS-180 tumor): about 700 pMOL/G; tumor uptake (LS-180 tumor): above 500 pMOL/G; specific tumor localization, molecules per avidin molecule (LS-180 tumor xenografts [1]): ≈ 1.5; tissue uptake at 96 h [2]: 85 %ID/g; absolute AUCtumor (LS-180 tumor xenografts [3]; mouse, in vivo): 9220; tumor localization (LS-180 tumor xenografts [3]; three highest doses (42, 21, 5.7 μg), 4 hours after injection): about 600 pmol/g; half-life (in vivo): ~5 min

Q: What does the source list for Avidin?
A: tumor uptake ([4]; at 25 h (antibody at time 0, avidin at 24 h)): about 250 pmol/g; tumor uptake ([4]; at 32 h (antibody at time 0, avidin at 24 h)): ~150 pmol/g; tumor uptake ([4]; at 48 h (antibody at time 0, avidin at 24 h)): ~50 pmol/g; tumor uptake ([4]; at 120 h (antibody at time 0, avidin at 24 h)): ~0 pmol/g

Q: With TNF-alpha as the molecule, how does the serum half-life [5] read?
A: The serum half-life was 10 to 15 min.

Q: What does the source list for “asialoorosomucoid: orosomucoid treated with neuraminidase to remove sialic acid residues”?
A: blood level [6]: 0.4%; Pellet [7]: 8.0%; Supernatant [7]: 92%

Q: Which results are given for “orosomucoid: human orosomucoid (alpha-1 acid glycoprotein, Sigma N-9885), I-125 labeled [reference compound]”?
A: blood level [6]: 78%; Pellet [7]: 10%; Supernatant [7]: 90%

B1: TNF-beta: tumor necrosis factor beta form, 171 amino acids (protein, UniProt P01374 35-205, looked up)
Lymphotoxin-alpha: LPGVGLTPSAAQTARQHPKMHLAHSTLKPAAHLIGDPSKQNSLLWRANTDRAFLQDGFSLSNNSLLVPTSGIYFVYSQVVFSGKAYSPKATSSPLYLAHEVQLFSSQYPFHVPLLSSQKMVYPGLQEPWLHSMYHGAAFQLTQGDQLSTHTDGIPHLVLSPSTVFFGAFAL
Q: Which serum half-life [5] does the source give for B1 here?
A: Its serum half-life is 10 to 15 min.
